Assay results from paper PMC9355967 (Nature Communications, 2022).

Key:
[1] = target: T1, purified AFDN FHA domain, C-terminally extended (371-580) (mouse, UniProt Q9QZQ1 371-580); test: ITC; MicroCal ITC200, 25 °C, 20 mM Tris-HCl pH 7.5, 20 mM NaCl, 1 mM DTT; conditions: both partners purified
T1 construct: 15N-labelled in one NMR experiment; GST probably cut off with thrombin; also called extended FHA domain; source: E. coli BL21, purified (glutathione resin, thrombin cleavage or glutathione elution, SEC)
T1 sequence (looked up): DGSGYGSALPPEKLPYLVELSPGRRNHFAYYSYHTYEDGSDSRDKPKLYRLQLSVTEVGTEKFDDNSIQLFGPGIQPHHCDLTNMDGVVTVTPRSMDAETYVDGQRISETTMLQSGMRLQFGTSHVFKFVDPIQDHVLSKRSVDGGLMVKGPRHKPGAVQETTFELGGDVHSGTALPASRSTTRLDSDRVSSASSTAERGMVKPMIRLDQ

[2] = target: T1, purified AFDN FHA domain, C-terminally …; test: ITC; MicroCal ITC200, 25 °C, 20 mM Tris-HCl pH 7.5, 150 mM NaCl, 1 mM DTT; conditions: both partners purified

Kd [1]: 5.7 µM
Kd [2]: 14.8 µM
B1: purified SCRIB PDZ1 domain (718-820) (domain or fragment)
chain: not shown
notes: 15N-labelled in one NMR experiment; GST probably cut off with thrombin (it was mixed with GST fusions on glutathione beads); source: E. coli BL21, purified (glutathione resin, thrombin cleavage or glutathione elution, SEC)
